The results in this text go back to patent US20170073382.

In the series the target is synthetic TAL effector (RVG-LAMP-2B-NLS-TALE) (Artificial Sequence) (UniProt P14727). Put plainly: cell_activity.

The substance “gfaABC1D-NeuroD1 plasmid without TAL effector binding site” yielded a binding signal of 1 fold.
